What was measured:
[1] = target: T1, recombinant HLA-E-His protein (human, UniProt P13747 22-305, limits assumed); test: ELISA (single-sided): coat hHLA-E-His (Novus), detect Anti-hFc (JAX); curve rises to about 0.4 at the highest concentration, no plateau
T1 construct: also called recombinant HLA-E (HLA-E-His); not shown: His tag
Source text: As shown in FIG. 9C and FIG. 9D, binding of the hNKG2A domain of the hPD-1-Fc-hNKG2A chimeric protein was characterized by capturing to, respectively, a plate-bound HLA-E. In FIG. 9C, the hPD-1-Fc-hNKG2A chimeric protein was detected using an anti-human PD-1 antibody in conjunction with an HRP conjugated anti-mouse Fc antibody. In FIG. […]

[2] = target: T2, hPD-L1 expressed on CHO-K1/hPD-L1 cells (human, UniProt Q9NZQ7 19-290); test: flow cytometry cell binding assay, CHO-K1-Luc cells, detection Anti-hARC-PE
T2 construct: whole, on cells
T2 sequence (Q9NZQ7 19-290): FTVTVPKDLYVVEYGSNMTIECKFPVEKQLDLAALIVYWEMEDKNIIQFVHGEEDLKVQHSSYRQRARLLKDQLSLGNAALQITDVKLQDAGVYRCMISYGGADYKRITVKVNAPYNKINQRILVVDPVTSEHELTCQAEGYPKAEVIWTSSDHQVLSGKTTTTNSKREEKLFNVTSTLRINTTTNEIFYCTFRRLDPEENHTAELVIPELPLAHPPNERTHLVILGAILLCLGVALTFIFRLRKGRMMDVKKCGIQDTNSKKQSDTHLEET

[3] = target: T1, recombinant HLA-E-His protein; test: Dual binding ELISA (capturing with HLA-E): coat hHLA-E-His (Novus), detect Anti-hPD1 (Sino), HRP Anti-mFc-HRP
Source text: As shown in FIG. 9C and FIG. 9D, binding of the hNKG2A domain of the hPD-1-Fc-hNKG2A chimeric protein was characterized by capturing to, respectively, a plate-bound HLA-E. In FIG. 9C, the hPD-1-Fc-hNKG2A chimeric protein was detected using an anti-human PD-1 antibody in conjunction with an HRP conjugated anti-mouse Fc antibody. In FIG. 9D, the hPD-1-Fc-hNKG2A chimeric protein was directly detected via an HRP conjugated anti-mouse Fc antibody.

[4] = target: T3, anti-human IgG antibody (plate-bound); test: Fc ELISA: coat Anti-hFc (Jax), detect Anti-hFc-HRP (Jax)
T3 construct: also called anti-human Fc antibody

[5] = target: T4, recombinant hPD-L1 (hPD-L1-Fc) protein (human, UniProt Q9NZQ7 19-239); test: dual ELISA; coat hPDL1-Fc, hPD1-fc-NKG2a titrated, detection HLA-E-His, Anti-His-6x-HRP; the signal needs both bindings
T4 construct: not shown: Fc
T4 sequence (Q9NZQ7 19-239 limits assumed): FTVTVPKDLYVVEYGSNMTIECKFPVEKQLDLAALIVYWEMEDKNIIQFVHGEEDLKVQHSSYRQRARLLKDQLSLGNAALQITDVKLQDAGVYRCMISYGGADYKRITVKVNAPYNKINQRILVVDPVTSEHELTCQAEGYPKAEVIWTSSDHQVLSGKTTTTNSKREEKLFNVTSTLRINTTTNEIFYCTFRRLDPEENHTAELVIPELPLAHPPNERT
Protocol: (§1) To understand whether the hPD-1-Fc-NKG2A chimeric protein can binds simultaneously to both hPD-L1 and HLA-E, the following ELISA experiment was carried out. Briefly, and recombinant hPD-L1 (hPD-L1-Fc) protein was coated on plates. Increasing amounts of the hPD-1-Fc-NKG2A chimeric protein was added to the plates for capture by the hPD-L1-Fc protein. Further, recombinant HLA-E (HLA-E-His) protein was added to the plate for capture by hPD-1-Fc-NKG2A chimeric protein. The binding of the HLA-E-His protein was detected using an anti-His 6× HRP antibody.

[6] = target: T5, PD-L1, plate-bound (Example 8) (Homo sapiens (Human), UniProt Q9NZQ7 19-238); test: Dual ELISA (capturing with PDL1): coat hPDL1-Fc (R&D), detect hHLA-E (Novus), HRP Anti-6X His
T5 construct: not shown: The Fc carrier of the vendor's hPD-L1-Fc (R&D) and any linker
T5 sequence (Q9NZQ7 19-238 limits assumed): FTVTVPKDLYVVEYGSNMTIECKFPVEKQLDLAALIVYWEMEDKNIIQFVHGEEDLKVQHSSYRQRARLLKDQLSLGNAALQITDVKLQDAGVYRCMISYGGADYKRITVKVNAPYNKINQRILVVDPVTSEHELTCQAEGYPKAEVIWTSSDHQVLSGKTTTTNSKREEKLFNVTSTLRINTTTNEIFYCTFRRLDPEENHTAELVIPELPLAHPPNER

[7] = target: T1, recombinant HLA-E-His protein; test: ELISA: the chimeric protein is the titrated coat (1:3), detection HLA-E-His (Novus NBP2-47435PEP), HRP Anti-6x-His-HRP
Protocol: In a complementary experiment, increasing amounts of the hCD48-Fc-NKG2A, hCD58-Fc-NKG2A, and hCD80-Fc-NKG2A chimeric proteins or a negative control protein was coated on plates. Recombinant HLA-E-His protein was added to the plates for capture by the plate-bound chimeric proteins or the negative control protein. The captured HLA-E-His protein was detected using an anti-6×-His-HRP antibody.

[8] = target: T6, recombinant human CD28-His (rhCD28-His) (human, UniProt P10747 19-152); test: ELISA: coat rhCD28-His (Acro), detection Anti-hFc-HRP
T6 construct: also called Human CD28-His protein; recombinant CD28 protein; not shown: His tag
T6 sequence (P10747 19-152 limits assumed): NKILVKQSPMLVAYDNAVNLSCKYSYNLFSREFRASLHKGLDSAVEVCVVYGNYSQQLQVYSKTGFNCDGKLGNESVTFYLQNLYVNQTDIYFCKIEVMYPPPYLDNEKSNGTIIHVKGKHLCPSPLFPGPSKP
Protocol: To understand whether the CD80 and CD86 parts of the hCD80-Fc-NKG2A and hCD86-Fc-NKG2A chimeric protein can bind CD28, ELISA-based assays were performed. Briefly, recombinant CD28 protein was coated on plates and increasing amounts of the hCD80-Fc-NKG2A, hCD86-Fc-NKG2A, and mCD48-Fc-NKG2A chimeric proteins, and recombinant human CD86-Fc (rhCD86-Fc) protein was added to the plates for capture by the plate-bound recombinant CD28 protein. The mCD48-Fc-NKG2A chimeric protein, and recombinant human CDrhCD86-Fc protein was used as negative and positive controls, respectively. The chimeric proteins bound to the recombinant CD28 protein was detected using an anti-human Fc HRP.

[9] = target: T7, recombinant human CD28-Fc (rhCD28-Fc) protein (human, UniProt P10747 19-152); test: dual ELISA; coat rhCD28-Fc, hCD80-fc-NKG2a titrated, detection HLA-E-His, Anti 6x-His-HRP; the signal needs both bindings
T7 construct: not shown: Fc
T7 sequence (P10747 19-152 limits assumed): as above
Protocol: as §1, with “hCD80-Fc-NKG2A” for “hPD-1-Fc-NKG2A”, “hCD28” for “hPD-L1”, “hCD28 (rhCD28-Fc)” for “hPD-L1 (hPD-L1-Fc)”, “recombinant human CD28-Fc (rhCD28-Fc)” for “hPD-L1-Fc”

[10] = target: T8, recombinant PD-L1 protein (mPD-L1-His) (mouse, UniProt Q9EP73 19-238); test: ELISA; mPD1-Fc-NKG2a coated in rising amounts, detection mPD-L1-His, Anti-His-6x-HRP
T8 construct: not shown: His tag
T8 sequence (Q9EP73 19-238 limits assumed): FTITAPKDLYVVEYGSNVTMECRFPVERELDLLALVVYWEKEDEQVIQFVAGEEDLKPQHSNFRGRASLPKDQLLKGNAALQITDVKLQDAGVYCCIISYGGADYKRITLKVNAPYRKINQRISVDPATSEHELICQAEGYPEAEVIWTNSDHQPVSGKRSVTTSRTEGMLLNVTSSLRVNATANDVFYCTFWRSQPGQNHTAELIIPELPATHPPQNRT
Protocol: Programmed death-ligand 1 (PD-L1) is a PD-1 ligand. To understand whether the PD-1 parts of the PD-1-Fc-NKG2A chimeric protein can bind PD-L1, ELISA-based assays were performed. […] The chimeric protein bound to the recombinant PD-L1 protein was detected using an anti-His-6× HRP.

[11] = target: T9, recombinant mouse PD-L1-Fc (rmPD-L1-Fc) (mouse, UniProt Q9EP73 19-238); test: dual ELISA; coat mPDL1-Fc, mPD1-Fc-NKG2a titrated, detection HLA-E-His, Anti-His-6x-HRP; the signal needs both bindings
T9 construct: also called rPD-L1-Fc; not shown: Fc
T9 sequence (Q9EP73 19-238 limits assumed): as above
Protocol: Increasing amounts of the mPD-1-Fc-NKG2A chimeric protein was added and detected using HLA-E-His. A chimeric protein comprising ECD of a type II transmembrane protein other than NKG2A was used as a negative control.
as §1, with “PD-1-Fc-NKG2A” for “hPD-1-Fc-NKG2A”, “PD-L1” for “hPD-L1”, “PD-L1 (rPD-L1-Fc)” for “hPD-L1 (hPD-L1-Fc)”, “rPD-L1-Fc” for “hPD-L1-Fc”

[12] = target: T10, anti-mFc IgG antibody (plate-bound); test: ELISA: coat Anti-mFc (IgG) Jax #115-006-008, detection Anti-mFc (H+L) HRP
T10 construct: also called anti-Fc antibody
Protocol: To understand whether the Fc linkers from the native chimeric proteins can be accessed by anti-mouse Fc antibodies, ELISA-based assays were performed. For these assays, an anti-mFc IgG antibody was coated on plates and increasing amounts of the mPD-1-Fc-NKG2A and mSLAMF6-Fc-NKG2a chimeric proteins were added to the plates for capture by the plate-bound anti-mFc IgG antibody. The binding of the mPD-1-Fc-NKG2A and mSLAMF6-Fc-NKG2a chimeric proteins bound to the anti-mFc IgG antibody were detected using an anti-mFc HRP. An IgG antibody mouse Fc was used to generate a standard curve. mFc IgG was used as a positive control.

T1 sequence (P13747 22-305 limits assumed): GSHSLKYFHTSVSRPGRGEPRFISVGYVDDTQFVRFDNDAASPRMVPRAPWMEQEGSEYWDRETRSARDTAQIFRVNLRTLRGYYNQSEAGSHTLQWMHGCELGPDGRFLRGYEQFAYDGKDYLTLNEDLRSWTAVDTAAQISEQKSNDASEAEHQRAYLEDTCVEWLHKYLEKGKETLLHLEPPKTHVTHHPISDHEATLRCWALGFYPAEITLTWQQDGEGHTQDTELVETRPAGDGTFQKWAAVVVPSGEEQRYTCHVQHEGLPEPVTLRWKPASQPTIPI

B1: human PD-1-Fc-hNKG2A chimeric protein (Fc fusion)
chain: not shown
notes: the Fc of the tested construct is therefore uncertain; also called hPD-1-Fc-hNKG2A; hPD-1-Fc-NKG2A
[1]
  EC50: ~24200 µM
[2]
  EC50 (read off the curve): ~1 mg/L
[3]
  EC50: ~0.175 µM
[4]
  EC50: 0.00964 µM
[5]
  EC50 (read off the curve): ~20 mg/L
[6]
  EC50: 0.0256 µM

B2: human CD80-Fc-NKG2A chimeric protein (Fc fusion)
chain: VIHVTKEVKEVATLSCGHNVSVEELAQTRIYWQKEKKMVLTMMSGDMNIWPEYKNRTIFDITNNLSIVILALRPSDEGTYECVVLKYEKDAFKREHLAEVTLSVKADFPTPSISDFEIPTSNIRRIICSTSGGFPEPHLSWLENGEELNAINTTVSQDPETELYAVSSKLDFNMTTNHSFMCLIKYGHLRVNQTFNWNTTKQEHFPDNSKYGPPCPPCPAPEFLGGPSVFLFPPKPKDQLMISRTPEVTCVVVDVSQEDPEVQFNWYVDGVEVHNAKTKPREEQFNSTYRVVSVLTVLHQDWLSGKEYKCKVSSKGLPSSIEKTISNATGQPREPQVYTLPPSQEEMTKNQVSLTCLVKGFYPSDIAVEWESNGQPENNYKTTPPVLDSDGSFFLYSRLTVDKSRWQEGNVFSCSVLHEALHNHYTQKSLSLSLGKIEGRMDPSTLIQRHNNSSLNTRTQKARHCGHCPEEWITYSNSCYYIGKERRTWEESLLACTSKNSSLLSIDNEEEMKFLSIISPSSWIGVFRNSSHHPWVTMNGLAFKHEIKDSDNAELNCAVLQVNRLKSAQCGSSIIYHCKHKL
notes: also called hCD80-Fc-NKG2A
[7]
  EC50 (read off the curve): ~0.9 mg/L
[8]
  binding result: binds
[9]
  binding result: binds

B3: mouse PD-1-Fc-NKG2A chimeric protein (Fc fusion)
chain: SGWLLEVPNGPWRSLTFYPAWLTVSEGANATFTCSLSNWSEDLMLNWNRLSPSNQTEKQAAFCNGLSQPVQDARFQIIQLPNRHDFHMNILDTRRNDSGIYLCGAISLHPKAKIEESPGAELVVTERILETSTRYPSPSPKPEGRFQGMVPRDCGCKPCICTVPEVSSVFIFPPKPKDVLTITLTPKVTCVVVDISKDDPEVQFSWFVDDVEVHTAQTQPREEQFNSTFRSVSELPIMHQDWLNGKEFKCRVNSAAFPAPIEKTISKTKGRPKAPQVYTIPPPKEQMAKDKVSLTCMITDFFPEDITVEWQWNGQPAENYKNTQPIMDTDGSYFVYSKLNVQKSNWEAGNTFTCSVLHEGLHNHHTEKSLSHSPGIIEGRMDTPYTEAKAQINSSMTRTHRDINYTLSSAQPCPHCPKEWISYSHNCYFIGMERKSWNDSLVSCISKNCSLLYIDSEEEQDFLQSLSLISWTGILRKGRGQPWVWKEDSIFKPKIAEILHDECNCAMMSASGLTADNCTTLHPYLCKCKFPI
notes: also called mPD-1-Fc-NKG2A; mPD1-Fc-NKG2A
[10]
  EC50 (read off the curve): ~20 mg/L
[11]
  EC50 (read off the curve): ~40 mg/L
[12]
  EC50 (read off the curve): ~0.08 mg/L
